Assay results published in PMC9105384, “Ethyl Gallate Dual-Targeting PTPN6 and PPARγ Shows Anti-Diabetic and Anti-Obese Effects” (International Journal of Molecular Sciences, 2022).

Substrate: Cc1cc(=O)oc2c(F)c(OP(=O)(O)O)c(F)cc12
Assay: purified protein, by the assay type
Set-up: DiFMUP hydrolysis by purified PTPs, fluorescence Ex355/Em460, initial rates over 10 min; Michaelis-Menten and Lineweaver-Burk Km
Procedure: The enzymatic activity of each PTP was evaluated using 6,8-difluoro-4-methylumbelliferyl phosphate (DiFMUP) as the surrogate substrate. To reach within the range of the initial rate (v0) during the measurement for 10 min, the pH and concentration of each PTP were optimized and are listed in Table S3. To determine the Km values, each PTP with optimized concentration was added to the reaction buffer (20 mM Bis-Tris at pH 6.0 or Tris at pH 7.0 and 8.0, 150 mM NaCl, 2.5 mM dithiothreitol (DTT), 0.01% Triton X-100) containing various concentrations of DiFMUP to obtain a final volume of 100 μL in a 96-well plate. Fluorescence intensities were measured once every minute for a complete 10 min duration using a Victor™ X4 Multilabel Plate Reader (Perkin Elmer, Waltham, MA, USA) at excitation/emission = 355 nm/460 nm. The initial rates of the reaction were determined using a previously described procedure for calculating the amount of product formation. To screen a library of 1033 natural products (Chengdu Biopurify Phytochemicals Ltd., Chengdu, China) against 20 PTPs, each PTP with an optimized concentration was added to the reaction buffer with an optimized pH containing DiFMUP (2 × Km for each PTP) after adding each compound (20 μM). […] The IC50 values were estimated using a sigmoid plot in GraphPad Prism 5 software (GraphPad Software Inc., San Diego, CA, USA). The Hill coefficient (nH), the degree of cooperativity, was calculated according to a previously published method. To determine the inhibition constant (Ki) and identify the inhibition mode of EG, various concentrations of EG (2.5, 5, 10, and 20 μM) were assayed with various concentrations of DiFMUP (260, 130, 65, and 32.5 μM). Kinetic parameters were obtained using Dixon plots for Ki and Lineweaver-Burk plots for the inhibition mode.

Row | Protein | Km
1 | PTPN2 (Homo sapiens) (protein) MPTTIEREFEELDTQRRWQPLYLEIRNESHDYPHRVAKFPENRNRNRYRDVSPYDHSRVKLQNAENDYINASLVDIEEAQRSYILTQGPLPNTCCHFWLMVWQQKTKAVVMLNRIVEKESVKCAQYWPTDDQEMLFKETGFSVKLLSEDVKSYYTVHLLQLENINSGETRTISHFHYTTWPDFGVPESPASFLNFLFKVRESGSLNPDHGPAVIHCSAGIGRSGTFSLVDTCLVLMEKGDDINIKQVLLNMRKYRMGLIQTPDQLRFSYMAIIEGAKCIKGDSSIQKRWKELSKEDLSPAFDHSPNKIMTEKYNGNRIGLEEEKLTGDRCTGLSSKMQDTMEENSESALRKRIREDRKATTAQKVQQMKQRLNENERKRKRWLYWQPILTKMGFMSVILVGAFVGWTLFFQQNAL | 20.0 µM
2 | SSH2 (Homo sapiens) (protein) MALVTVQRSPTPSTTSSPCASEADSGEEECRSQPRSISESFLTVKGAALFLPRGNGSSTPRISHRRNKHAGDLQQHLQAMFILLRPEDNIRLAVRLESTYQNRTRYMVVVSTNGRQDTEESIVLGMDFSSNDSSTCTMGLVLPLWSDTLIHLDGDGGFSVSTDNRVHIFKPVSVQAMWSALQSLHKACEVARAHNYYPGSLFLTWVSYYESHINSDQSSVNEWNAMQDVQSHRPDSPALFTDIPTERERTERLIKTKLREIMMQKDLENITSKEIRTELEMQMVCNLREFKEFIDNEMIVILGQMDSPTQIFEHVFLGSEWNASNLEDLQNRGVRYILNVTREIDNFFPGVFEYHNIRVYDEEATDLLAYWNDTYKFISKAKKHGSKCLVHCKMGVSRSASTVIAYAMKEYGWNLDRAYDYVKERRTVTKPNPSFMRQLEEYQGILLASKQRHNKLWRSHSDSDLSDHHEPICKPGLELNKKDITTSADQIAEVKTMESHPPIPPVFVEHMVPQDANQKGLCTKERMICLEFTSREFHAGQIEDELNLNDINGCSSGCCLNESKFPLDNCHASKALIQPGHVPEMANKFPDLTVEDLETDALKADMNVHLLPMEELTSPLKDPPMSPDPESPSPQPSCQTEISDFSTDRIDFFSALEKFVELSQETRSRSFSHSRMEELGGGRNESCRLSVVEVAPSKVTADDQRSSSLSNTPHASEESSMDEEQSKAISELVSPDIFMQSHSENAISVKEIVTEIESISQGVGQIQLKGDILPNPCHTPKKNSIHELLLERAQTPENKPGHMEQDEDSCTAQPELAKDSGMCNPEGCLTTHSSIADLEEGEPAEGEQELQGSGMHPGAKWYPGSVRRATLEFEERLRQEQEHHGAAPTCTSLSTRKNSKNDSSVADLAPKGKSDEAPPEHSFVLKEPEMSKGKGKYSGSEAGSLSHSEQNATVPAPRVLEFDHLPDPQEGPGSDTGTQQEGVLKDLRTVIPYQESETQAVPLPLPKRVEIIEYTHIVTSPNHTGPGSEIATSEKSGEQGLRKVNMEKSVTVLCTLDENLNRTLDPNQVSLHPQVLPLPHSSSPEHNRPTDHPTSILSSPEDRGSSLSTALETAAPFVSHTTHLLSASLDYLHPQTMVHLEGFTEQSSTTDEPSAEQVSWEESQESPLSSGSEVPYKDSQLSSADLSLISKLGDNTGELQEKMDPLPVACRLPHSSSSENIKSLSHSPGVVKERAKEIESRVVFQAGLTKPSQMRRSASLAKLGYLDLCKDCLPEREPASCESPHLKLLQPFLRTDSGMHAMEDQESLENPGAPHNPEPTKSFVEQLTTTECIVQSKPVERPLVQYAKEFGSSQQYLLPRAGLELTSSEGGLPVLQTQGLQCACPAPGLAVAPRQQHGRTHPLRRLKKANDKKRTTNPFYNTM | 215.3 µM
